Test results: patent US20240132624A1 (Ablynx, published 2024)
One block for each binder: values may come before it.

Columns and labels:
human serum albumin [1] = target: T1, human serum albumin (human, UniProt P02768 25-609); assay: SPR pH 6.0
T1 construct: also called HSA
Experimental: (§1) The affinity of the purified, multivalent ISVD constructs for human and mouse serum albumin (HSA and MSA, respectively) was determined on the ProteOn XPR36 (BioRad Laboratories, Inc.) instrument. […] The ISVD constructs were injected at 6 different concentrations (between 1 and 500 nM) and allowed to associate for 120 s at 45 μL/min and dissociate for 600s-3600s at 45 μL/min. Evaluation of the sensorgrams was based on the 1:1 Langmuir dissociation model simultaneously fitting on and off-rates.

mouse serum albumin [2] = target: T2, mouse serum albumin (mouse, UniProt P07724 25-608); assay: SPR pH 6.0
T2 construct: also called MSA
Experimental: as §1

cyno FcRn/b2M [3] = target: T3, cyno FcRn/b2M (cyno, UniProt Q8SPV9 24-297; Q8SPW0 21-119, biotinylated); assay: SPR pH 6.0
T3 construct: bought recombinant biotinylated protein (Immunitrack ITF05 or ACRO FCM-C82W5); also called cFcRn; cFcRn/cb2M
Experimental: (§2) The affinity of the purified, multivalent ISVD constructs for human and cyno FcRn was determined on the MASS-2 (Sierra sensors, Gmbh) instrument, hFcRn/hb2M and cFcRn/cb2M was captured on a Biotin-tag Capture Chip or a High Capacity Amine Chip (pre-immobilized with neutravidin). The ISVD constructs were injected at 6 different concentrations (between 1 and 4000 nM) and allowed to associate for 120 s at 45 μL/min and dissociate for 600 s-3600 s at 45 μL/min. […] Evaluation of the sensorgrams was based on the 1:1 Langmuir dissociation model simultaneously fitting on and off-rates.

human FcRn/b2M [4] = target: T4, human FcRn/b2M (human, UniProt P61769 21-119, biotinylated); assay: SPR pH 6.0
T4 construct: bought recombinant biotinylated protein (ACRO FCM-H82W4 or Immunitrack ITF01); also called hFcRn; hFcRn/hb2M
Experimental: as §2

human serum albumin [5] = target: T1, human serum albumin; assay: SPR pH 7.4
Experimental: as §1

mouse serum albumin [6] = target: T2, mouse serum albumin; assay: SPR pH 7.4
Experimental: as §1

cyno FcRn/b2M [7] = target: T3, cyno FcRn/b2M; assay: SPR pH 7.4
Experimental: as §2

human FcRn/b2M [8] = target: T4, human FcRn/b2M; assay: SPR pH 7.4
Experimental: as §2

cyno FcRn/b2M [9] = target: T3, cyno FcRn/b2M; assay: SPR pH 7.4; remark: listed apart in the source
Experimental: as §2

human FcRn/b2M [10] = target: T4, human FcRn/b2M; assay: SPR pH 7.4; remark: listed apart in the source
Experimental: as §2

human serum albumin [11] = target: T1, human serum albumin; assay: SPR pH 6.0; remark: listed apart in the source
Experimental: as §1

mouse serum albumin [12] = target: T2, mouse serum albumin; assay: SPR pH 6.0; remark: listed apart in the source
Experimental: as §1

cyno FcRn/b2M [13] = target: T3, cyno FcRn/b2M; assay: SPR pH 6.0; remark: listed apart in the source
Experimental: as §2

human FcRn/b2M [14] = target: T4, human FcRn/b2M; assay: SPR pH 6.0; remark: listed apart in the source
Experimental: as §2

human serum albumin [15] = target: T1, human serum albumin; assay: SPR pH 7.4; remark: listed apart in the source
Experimental: as §1

mouse serum albumin [16] = target: T2, mouse serum albumin; assay: SPR pH 7.4; remark: listed apart in the source
Experimental: as §1

cyno FcRn/b2M [17] = target: T3, cyno FcRn/b2M; assay: SPR pH 7.4; remark: listed apart in the source
human FcRn/b2M [18] = target: T4, human FcRn/b2M; assay: SPR pH 7.4; remark: listed apart in the source
human FcRn/b2M [19] = target: T4, human FcRn/b2M; assay: SPR pH 6.0; remark: listed apart in the source
cyno FcRn/b2M [20] = target: T3, cyno FcRn/b2M; assay: SPR pH 6.0; remark: listed apart in the source
human FcRn/b2M [21] = target: T4, human FcRn/b2M; assay: SPR pH 6.0; remark: listed apart in the source
cyno FcRn/b2M [22] = target: T3, cyno FcRn/b2M; assay: SPR; pH 7.4 vs pH 6.0
human FcRn/b2M [23] = target: T4, human FcRn/b2M; assay: SPR; pH 7.4 vs pH 6.0
cyno FcRn/b2M [24] = target: T3, cyno FcRn/b2M; assay: SPR pH 6.0; remark: listed apart in the source
Experimental: (§3) The affinities of the monovalent purified, tagless ISVDs were determined for human FcRn on ProteOn XPR36 (BioRad Laboratories, Inc.), the MASS-2 (Sierra sensors, Gmbh) or SPR-32 (Bruker Corporation) instrument. In the same way, the affinities of bivalent ISVD constructs comprising two of the same monovalent building blocks of purified, tagless ISVDs were determined for human FcRn on ProteOn XPR36 (BioRad Laboratories, Inc.), the MASS-2 (Sierra sensors, Gmbh) or SPR-32 (Bruker Corporation) instrument. For affinity measurements, ˜1000-3000RU (hFcRn/hb2M; ACRO Biosystems FCM-H82W4) was captured on a ProteOn NLC sensor (ProteOn) or Biotin-tag Capture Chip or a High Capacity Amine Chip (pre-immobilized with neutravidin; MASS-2). The ISVDs were injected at 6 different concentrations (between 1 and 4000 nM) and allowed to associate for 120s at 45 μL/min and dissociate for 600s-3600s at 45 μL/min. […] Evaluation of the sensorgrams was based on the 1:1 Langmuir dissociation model simultaneously fitting on and off-rates.

human FcRn/b2M [25] = target: T4, human FcRn/b2M; assay: SPR pH 6.0; remark: listed apart in the source
Experimental: as §3

cyno FcRn/b2M [26] = target: T3, cyno FcRn/b2M; assay: SPR pH 7.4; remark: listed apart in the source
Experimental: as §3

human FcRn/b2M [27] = target: T4, human FcRn/b2M; assay: SPR pH 7.4; remark: listed apart in the source
Experimental: as §3

T2 sequence (P07724 25-608 limits assumed): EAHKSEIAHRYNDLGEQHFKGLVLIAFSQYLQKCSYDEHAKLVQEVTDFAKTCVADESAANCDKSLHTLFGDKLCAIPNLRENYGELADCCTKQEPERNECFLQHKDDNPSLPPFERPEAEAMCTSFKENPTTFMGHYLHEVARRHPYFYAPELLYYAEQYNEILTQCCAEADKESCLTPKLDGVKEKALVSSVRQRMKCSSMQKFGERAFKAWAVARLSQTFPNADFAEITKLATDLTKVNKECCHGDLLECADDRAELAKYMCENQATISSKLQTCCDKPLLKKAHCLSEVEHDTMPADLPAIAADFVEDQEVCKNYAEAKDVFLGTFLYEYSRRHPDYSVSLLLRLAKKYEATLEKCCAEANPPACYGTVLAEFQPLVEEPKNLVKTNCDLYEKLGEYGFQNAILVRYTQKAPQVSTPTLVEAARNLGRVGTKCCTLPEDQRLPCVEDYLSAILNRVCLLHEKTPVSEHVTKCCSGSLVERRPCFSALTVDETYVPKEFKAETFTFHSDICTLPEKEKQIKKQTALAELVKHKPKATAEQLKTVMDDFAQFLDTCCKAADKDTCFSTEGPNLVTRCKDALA
T3 sequence (Q8SPV9 24-297 limits assumed, chain 1 of 2): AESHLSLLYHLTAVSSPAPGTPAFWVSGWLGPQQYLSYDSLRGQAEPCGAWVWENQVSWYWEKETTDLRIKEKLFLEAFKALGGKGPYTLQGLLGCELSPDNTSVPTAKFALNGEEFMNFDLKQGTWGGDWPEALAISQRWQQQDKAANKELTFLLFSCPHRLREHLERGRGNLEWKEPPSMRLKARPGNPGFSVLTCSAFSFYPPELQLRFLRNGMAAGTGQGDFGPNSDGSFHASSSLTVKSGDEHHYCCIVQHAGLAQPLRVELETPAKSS
T3 sequence (Q8SPW0 21-119 limits assumed, chain 2 of 2): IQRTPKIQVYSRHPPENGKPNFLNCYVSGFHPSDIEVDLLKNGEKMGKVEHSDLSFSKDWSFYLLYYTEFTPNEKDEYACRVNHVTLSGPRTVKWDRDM

B1: T026301170 (bispecific antibody)
chain: DVQLVESGGGVVQPGGSLRLSCAASGFTFSSYAMYWVRQAPGKGLEWVSAISSGGGSTDYADSVKGRFTISRDNSKNTLYLQMNSLRPEDTALYYCAADTLYTSLTWYSYWGQGTLVTVSSGGGGSGGGGSGGGGSGGGGSGGGGSGGGGSGGGGSEVQLVESGGGVVQPGGSLRLSCAASGFTFRSFGMSWVRQAPGKGPEWVSSISGSGSDTLYADSVKGRFTISRDNSKNTLYLQMNSLRPEDTALYYCTIGGSLSRSSQGTLVTVSSA
notes: bispecific ISVD construct; also called T0263018B11(E1D)-35GS-ALB23002-A
Kd (human serum albumin [1]): 6.1 nM
Kd (mouse serum albumin [2]): 67 nM
Kd (cyno FcRn/b2M [3]): 7.9 nM
Kd (human FcRn/b2M [4]): 12 nM
Kd (human serum albumin [5]): 13 nM
Kd (mouse serum albumin [6]): 85 nM
Kd (cyno FcRn/b2M [7]): 290 nM
Kd (human FcRn/b2M [8]): 450 nM

B2: T026301197 (bispecific antibody, name in Kabat numbering)
chain: DVQLVESGGGVVQPGGSLRLSCAASGFTFSSYAMYWVRQAPGKGLEWVSAISQGGGSTDYADSVKGRFTISRDNSKNTLYLQMNSLRPEDTALYYCAADTLYTSLTWYSYWGQGTLVTVSSGGGGSGGGGSGGGGSGGGGSGGGGSGGGGSGGGGSEVQLVESGGGVVQPGGSLRLSCAASGFTFRSFGMSWVRQAPGKGPEWVSSISGSGSDTLYADSVKGRFTISRDNSKNTLYLQMNSLRPEDTALYYCTIGGSLSRSSQGTLVTVSSA
notes: bispecific ISVD construct; also called T0263018B11(E1D, S52aQ)-35GS-ALB23002-A
Kd (human serum albumin [1]): 5.1 nM
Kd (mouse serum albumin [2]): 57 nM
Kd (cyno FcRn/b2M [3]): 41 nM
Kd (human FcRn/b2M [4]): 71 nM
Kd (human serum albumin [5]): 11 nM
Kd (mouse serum albumin [6]): 69 nM
Kd (cyno FcRn/b2M [7]): 2400 nM
Kd (human FcRn/b2M [8]): 2600 nM

B6: T026301064 (VHH, name in Kabat numbering)
VHH: EVQLVESGGGVVQPGGSLRLSCAASGFTFSSYDMYWVRQAPGKGLEWVSAISQGGGSTDYADSVKGRFTISRDNSKNTLYLQMNSLRPEDTALYYCAADTLYTSLTWYSYWGQGTLVTVSS
notes: tagless
Kd (cyno FcRn/b2M [17]): 2400 nM
Kd (human FcRn/b2M [18]): 3700 nM
koff (human FcRn/b2M [19]): 0.00046 s⁻¹
Kd (cyno FcRn/b2M [20]): 3.8 nM
Kd (human FcRn/b2M [21]): 9.4 nM
KD ratio pH 7.4/6.0 (cyno FcRn/b2M [22]): 632
KD ratio pH 7.4/6.0 (human FcRn/b2M [23]): 394

B7: T026301266 (other)
VHH 1: EVQLVESGGGVVQPGGSLRLSCAASGFTFSSYAMYWVRQAPGKGLEWVSAISSGGGSTDYADSVKGRFTISRDNSKNTLYLQMNSLRPEDTALYYCAADTLYTSLTWYSYWGQGTLVTVSS
VHH 2: EVQLVESGGGVVQPGGSLRLSCAASGFTFRSFGMSWVRQAPGKGPEWVSSISGSGSDTLYADSVKGRFTISRDNSKNTLYLQMNSLRPEDTALYYCTIGGSLSRSSQGTLVTVSSA
notes: tetravalent ISVD construct; also called X-FcRn-Y-ALB23002
Kd (cyno FcRn/b2M [9]): 880 nM
Kd (human FcRn/b2M [10]): 1600 nM
Kd (human serum albumin [11]): 12 nM
koff (mouse serum albumin [12]): 0.053 s⁻¹
Kd (cyno FcRn/b2M [13]): 26 nM
Kd (human FcRn/b2M [14]): 41 nM
Kd (human serum albumin [15]): 8.6 nM
koff (mouse serum albumin [16]): 0.048 s⁻¹

B8: T026301234 (other, not shown: small tags and cut ends)
chain: DVQLVESGGGVVQPGGSLRLSCAASGFTFSSYAMYWVRQAPGKGLEWVSAISSGGGSTDYADSVKGRFTISRDNSKNTLYLQMNSLRPEDTALYYCAADTLYTSLTWYSYWGQGTLVTVSS
notes: pentavalent ISVD construct
Kd (cyno FcRn/b2M [24]): 14 nM
Kd (human FcRn/b2M [25]): 26 nM
Kd (cyno FcRn/b2M [26]): 490 nM
Kd (human FcRn/b2M [27]): 740 nM

B11: T026301079 (VHH, name in Kabat numbering)
VHH: EVQLVESGGGVVQPGGSLRLSCAASGFTFSSYAMYWVRQAPGKGLEWVSAISQGGGSTDYADSVKGRFTISRDNSKNTLYLQMNSLRPEDTALYYCAADTLYTSLTSYSYWGQGTLVTVSS
notes: tagless
Kd (cyno FcRn/b2M [17]): 5900 nM
koff (human FcRn/b2M [19]): 0.0065 s⁻¹
Kd (cyno FcRn/b2M [20]): 76 nM
Kd (human FcRn/b2M [21]): 120 nM
KD ratio pH 7.4/6.0 (cyno FcRn/b2M [22]): 78

Next, values leading:

Kd (human serum albumin [1]): 7.3 nM
Kd (mouse serum albumin [2]): 89 nM
Kd (cyno FcRn/b2M [3]): 67 nM
Kd (human serum albumin [5]): 15 nM
Kd (mouse serum albumin [6]): 120 nM
Kd (cyno FcRn/b2M [7]): 2900 nM
Kd (human FcRn/b2M [8]): 2500 nM
B3: T026301198 (bispecific antibody, name in Kabat numbering)
chain: DVQLVESGGGVVQPGGSLRLSCAASGFTFSSYAMYWVRQAPGKGLEWVSAISSGGGSTDYADSVKGRFTISRDNSKNTLYLQMNSLRPEDTALYYCAADTLYTSLTSYSYWGQGTLVTVSSGGGGSGGGGSGGGGSGGGGSGGGGSGGGGSGGGGSEVQLVESGGGVVQPGGSLRLSCAASGFTFRSFGMSWVRQAPGKGPEWVSSISGSGSDTLYADSVKGRFTISRDNSKNTLYLQMNSLRPEDTALYYCTIGGSLSRSSQGTLVTVSSA
notes: bispecific ISVD construct; also called T0263018B11(E1D, W100cS)-35GS-ALB23002-A

Kd (cyno FcRn/b2M [9]): 710 nM
Kd (human FcRn/b2M [10]): 1200 nM
Kd (human serum albumin [11]): 14 nM
koff (mouse serum albumin [12]): 0.056 s⁻¹
Kd (cyno FcRn/b2M [13]): 20 nM
Kd (human FcRn/b2M [14]): 34 nM
Kd (human serum albumin [15]): 11 nM
koff (mouse serum albumin [16]): 0.052 s⁻¹
B4: T026301257 (bispecific antibody, not shown: small tags and cut ends)
chain: EVQLVESGGGVVQPGGSLRLSCAASGFTFSSYAMYWVRQAPGKGLEWVSAISSGGGSTDYADSVKGRFTISRDNSKNTLYLQMNSLRPEDTALYYCAADTLYTSLTWYSYWGQGTLVTVSSGGGGSGGGGSGGGGSGGGGSGGGGSGGGGSGGGGSEVQLVESGGGVVQPGGSLRLSCAASGFTFRSFGMSWVRQAPGKGPEWVSSISGSGSDTLYADSVKGRFTISRDNSKNTLYLQMNSLRPEDTALYYCTIGGSLSRSSQGTLVTVSSA
notes: tetravalent ISVD construct; also called X-Y-FcRn-35GS-ALB23002

Kd (cyno FcRn/b2M [9]): 480 nM
Kd (human FcRn/b2M [10]): 830 nM
Kd (human serum albumin [11]): 9.8 nM
koff (mouse serum albumin [12]): 0.038 s⁻¹
Kd (cyno FcRn/b2M [13]): 15 nM
Kd (human FcRn/b2M [14]): 25 nM
Kd (human serum albumin [15]): 7.32 nM
koff (mouse serum albumin [16]): 0.037 s⁻¹
B5: T026301259 (bispecific antibody, not shown: small tags and cut ends)
chain: EVQLVESGGGVVQPGGSLRLSCAASGFTFSSYAMYWVRQAPGKGLEWVSAISSGGGSTDYADSVKGRFTISRDNSKNTLYLQMNSLRPEDTALYYCAADTLYTSLTWYSYWGQGTLVTVSSGGGGSGGGSEVQLVESGGGVVQPGGSLRLSCAASGFTFRSFGMSWVRQAPGKGPEWVSSISGSGSDTLYADSVKGRFTISRDNSKNTLYLQMNSLRPEDTALYYCTIGGSLSRSSQGTLVTVSSA
notes: tetravalent ISVD construct; also called X-Y-FcRn-ALB23002

Kd (cyno FcRn/b2M [24]): 270 nM
Kd (human FcRn/b2M [25]): 490 nM
Kd (cyno FcRn/b2M [26]): 420 nM
Kd (human FcRn/b2M [27]): 750 nM
B9: T026301233 (other, name in Kabat numbering, not shown: small tags and cut ends)
chain: DVQLVESGGGVVQPGGSLRLSCAASTFTFSSYAMYWVRQAPGKGLEWVSAISQGGGSTDYADSVKGRFTISRDNSKNTLYLQMNSLRPEDTALYYCAADTLYTSLTSYSYWGQGTLVTVSS
notes: pentavalent ISVD construct

Kd (cyno FcRn/b2M [17]): 5000 nM
Kd (human FcRn/b2M [18]): 5400 nM
koff (human FcRn/b2M [19]): 0.0032 s⁻¹
Kd (cyno FcRn/b2M [20]): 48 nM
Kd (human FcRn/b2M [21]): 77 nM
KD ratio pH 7.4/6.0 (cyno FcRn/b2M [22]): 104
KD ratio pH 7.4/6.0 (human FcRn/b2M [23]): 70
B10: T026301111 (VHH, name in Kabat numbering)
VHH: EVQLVESGGGVVQPGGSLRLSCAASGFTFSEYAMYWVRQAPGKGLEWVSAISQGGGSTDYADSVKGRFTISRDNSKNTLYLQMNSLRPEDTALYYCAADTLYTSLTWYSYWGQGTLVTVSS
notes: tagless

Kd (cyno FcRn/b2M [24]): 54 nM
Kd (human FcRn/b2M [25]): 100 nM
Kd (cyno FcRn/b2M [26]): 580 nM
Kd (human FcRn/b2M [27]): 670 nM
B12: T026301230 (other, name in Kabat numbering, not shown: small tags and cut ends)
chain: DVQLVESGGGVVQPGGSLRLSCAASGFTFSSYAMYWVRQAPGKGLEWVSAISSGGGSTDYADSVKGRFTISRDNSKNTLYLQMNSLRPEDTALYYCAADTLYTSLTSYSYWGQGTLVTVSS
notes: pentavalent ISVD construct
